Drawing on publication PMC12952242, this text covers Kd for one substance.

For data set [1], the system named is ZNF207 full-length K42E. The data set can be described thus: EMSA. (In EMSA bound probe runs differently from free probe, usually more slowly.)
The subject of data set [2] is ZNF207 full-length WT. The data set can be described thus: EMSA.

Take U1 snRNA: the Kd was 60.4 nM in data set [1] and 48.7 nM in data set [2].

One may read the Kd as a measure of binding affinity in units of concentration. Lower therefore signals tighter binding.
